Laboratory results published in patent publication US20210244762A1 (AUTOLUS, published 2021).

Target: T1, Recombinant TGFbRII-Fc protein (R&D systems) (human, UniProt P37173 23-159)
T1 construct: Bought reagent; also called TGFβRII-Fc; TGFβRII-human Fc; not shown: Fc part; human Fc by the names 'TGFβRII-human Fc' / 'TGFbRII-hFc' and the anti-human capture kit; isotype and limits not
Assay: SPR (Biacore 8K), TGFbRII-Fc captured by anti-human capture kit on CM5, VHH as analyte, 1:1 Langmuir fit, 25 °C
Excerpt: The binding kinetics of these four dAbs for TGFβRII was then investigated using Biacore affinity analysis and the results are shown in Table 3 below.
Recombinant TGFbRII-Fc protein (R&D systems) was immobilised on individual flow cells on a Series S CM5 sensor chip (GE Healthcare) previously functionalised with anti-human capture kit, to a density of 150-200 RU using a Biacore 8K instrument. HBS-P⁺ buffer was used as running buffer is all experimental conditions. Recombinant purified VHH antibodies at known concentrations were used as the ‘analyte’ and injected over the respective flow cells with 150 s contact time and 600s dissociation at […] of flow rate with a constant temperature of 25° C. In each experiment, flow cell 1 was unmodified and used for reference subtraction. A ‘0 concentration’ sensorgram of buffer alone was used as a double reference subtraction to factor for drift. Data were fit to a 1:1 Langmuir binding model using local Rmax.

T1 sequence (P37173 23-159 limits assumed): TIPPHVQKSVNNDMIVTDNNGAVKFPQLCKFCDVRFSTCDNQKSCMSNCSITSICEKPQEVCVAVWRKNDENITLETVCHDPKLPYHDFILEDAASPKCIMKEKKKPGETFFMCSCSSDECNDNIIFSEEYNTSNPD

Kd: 67.2 nM
koff: 0.119 s⁻¹
kon: 1.77e+06 M⁻¹ s⁻¹
B1: anti-TGFβRII single domain antibody (dAb) clone H3 (VHH)
VHH: QVQLQQSGGGLVQAGGSLRLACAASGRSFSIYGITWFRQAPGKEREFVAAITGSGLTTNYADSVKGRFTISRDNAKNMVYLQLNSLKPDDTAVYYCAATRAYSGYYGENPTRYAYWGQGTQVTVS
notes: H3 is the one clone not 'related' to the other three; also called dAb H3; anti-TGFbRII VHH H3
